# In PMC9892032:
# Several values for one entry are separate records, joined by “and”; a condition that tells them apart may be missing. Equal entries are not always repeated.
# Target: Lake Sinai virus 2 capsid protein, full-length (residues 1–520) (Lake Sinai virus 2)
# Assay: cryo-EM structure; purified LSV2 VLPs (30 mg/mL) assembled in vitro in 50 mM HEPES, 300 mM NaCl at pH 6.5, 7.5 or 8.5; T = 4 and T = 3 particles from single datasets, icosahedral and focused refinement
substance,measurement,value
"Lake Sinai virus 2 capsid protein, full-length (residues 1–520) (natural protein)",stoichiometry N,240 copies and 180 copies
